From the RNAGym collection of RNA variant scans (doi:10.1101/gr.219683.116)

B1: mRNA-splicing (parent)
chain: AGUUGCUGCUGGGAGCUCCAGCACAGUGAAAUGGACAGAAGGGCAGAGCAA

Variants of: B1
Test: exon inclusion enrichment index; higher = more inclusion; WT1 exon 5 minigene, HEK293

Variant	exon inclusion enrichment index
AGUUCGCUUCGGGAGCUCCAGCACAGUGAAAUGGACAGAAGGGCAGAGCAA [G5C C6G U7C G8U C9U U10C]	2.82
AGUUCGCGCUGGGAGCUCCAGCACAGUGAAAUGGACAGAAGGGCAGAGCAA [G5C C6G U7C]	0.636
AGUUCGCGUCGGGAGCUCCAGCACAGUGAAAUGGACAGAAGGGCAGAGCAA [G5C C6G U7C C9U U10C]	3.88
AGUUCGCGUGGGGAGCUCCAGCACAGUGAAAUGGACAGAAGGGCAGAGCAA [G5C C6G U7C C9U U10G]	1.02
AGUUCGCGUAGGGAGCUCCAGCACAGUGAAAUGGACAGAAGGGCAGAGCAA [G5C C6G U7C C9U U10A]	0.144
AGUUCAGUCAGGGAGCUCCAGCACAGUGAAAUGGACAGAAGGGCAGAGCAA [G5C C6A U7G G8U U10A]	0.00932
AGUUCGCUGCGGGAGCUCCAGCACAGUGAAAUGGACAGAAGGGCAGAGCAA [G5C C6G U7C G8U C9G U10C]	2.53
AGUUCGAGCCGGGAGCUCCAGCACAGUGAAAUGGACAGAAGGGCAGAGCAA [G5C C6G U7A U10C]	2.53
AGUUCACACAGGGAGCUCCAGCACAGGCAAAUGGACAGAAGGGCAGAGCAA [G5C C6A U7C G8A U10A U27G G28C]	0.0314
AGUUCACACAGGGAGCUCCAGCACAGGAAAAUGGACAGAAGGGCAGAGCAA [G5C C6A U7C G8A U10A U27G G28A]	0.122
AGUUCACACAGGGAGCUCCAGCACAGGUAAAUGGACAGAAGGGCAGAGCAA [G5C C6A U7C G8A U10A U27G G28U]	0.00217
AGUUCACACAGGGAGCUCCAGCACAGAAAAAUGGACAGAAGGGCAGAGCAA [G5C C6A U7C G8A U10A U27A G28A]	0.112
AGUUCACACAGGGAGCUCCAGCACAGACAAAUGGACAGAAGGGCAGAGCAA [G5C C6A U7C G8A U10A U27A G28C]	0.152
AGUUCACACAGGGAGCUCCAGCACAGAUAAAUGGACAGAAGGGCAGAGCAA [G5C C6A U7C G8A U10A U27A G28U]	0.0378
AGUUCGCAACGGGAGCUCCAGCACAGUGAAAUGGACAGAAGGGCAGAGCAA [G5C C6G U7C G8A C9A U10C]	3.14
AGUUCGUGCUGGGAGCUCCAGCACAGUGAAAUGGACAGAAGGGCAGAGCAA [G5C C6G]	0.0268
AGUUCAUGCCGGGAGCUCCAGCACAGUGAAAUGGACAGAAGGGCAGAGCAA [G5C C6A U10C]	1.97
AGUUCAUGCAGGGAGCUCCAGCACAGUGAAAUGGACAGAAGGGCAGAGCAA [G5C C6A U10A]	0.116
AGUUCGCACAGGGAGCUCCAGCACAGUGAAAUGGACAGAAGGGCAGAGCAA [G5C C6G U7C G8A U10A]	0.449
AGUUCGCACCGGGAGCUCCAGCACAGUGAAAUGGACAGAAGGGCAGAGCAA [G5C C6G U7C G8A U10C]	3.31
AGUUCGAACAGGGAGCUCCAGCACAGUGAAAUGGACAGAAGGGCAGAGCAA [G5C C6G U7A G8A U10A]	0.321
AGUUCGAACCGGGAGCUCCAGCACAGUGAAAUGGACAGAAGGGCAGAGCAA [G5C C6G U7A G8A U10C]	2.49
AGUUCAGCCAGGGAGCUCCAGCACAGUGAAAUGGACAGAAGGGCAGAGCAA [G5C C6A U7G G8C U10A]	0.0276
AGUUCACCUCGGGAGCUCCAGCACAGUGAAAUGGACAGAAGGGCAGAGCAA [G5C C6A U7C G8C C9U U10C]	1.98
AGUUCACCUAGGGAGCUCCAGCACAGUGAAAUGGACAGAAGGGCAGAGCAA [G5C C6A U7C G8C C9U U10A]	0.107
AGUUCACGCCGGGAGCUCCAGCACAGUGAAAUGGACAGAAGGGCAGAGCAA [G5C C6A U7C U10C]	3.16

Variant	exon inclusion enrichment index
AGUUCACGCAGGGAGCUCCAGCACAGUGAAAUGGACAGAAGGGCAGAGCAA [G5C C6A U7C U10A]	0.259
AGUUCACACGGGGAGCUCCAGCACAGUGAAAUGGACAGAAGGGCAGAGCAA [G5C C6A U7C G8A U10G]	0.737
AGUUCACACCGGGAGCUCCAGCACAGUGAAAUGGACAGAAGGGCAGAGCAA [G5C C6A U7C G8A U10C]	1.71
AGUUCACUCAGGGAGCUCCAGCACAGUGAAAUGGACAGAAGGGCAGAGCAA [G5C C6A U7C G8U U10A]	0.146
AGUUCACACGCGGAGCUCCAGCACAGUGAAAUGGACAGAAGGGCAGAGCAA [G5C C6A U7C G8A U10G G11C]	2
AGUUCACACGUGGAGCUCCAGCACAGUGAAAUGGACAGAAGGGCAGAGCAA [G5C C6A U7C G8A U10G G11U]	1.69
AGUUCACACGAGGAGCUCCAGCACAGUGAAAUGGACAGAAGGGCAGAGCAA [G5C C6A U7C G8A U10G G11A]	1.71
AGUUCACUAAGGGAGCUCCAGCACAGUGAAAUGGACAGAAGGGCAGAGCAA [G5C C6A U7C G8U C9A U10A]	0.0885
AGUUCGUUCCGGGAGCUCCAGCACAGUGAAAUGGACAGAAGGGCAGAGCAA [G5C C6G G8U U10C]	2.67
AGUUCGCGCAAGGAGCUCCAGCACAGUGAAAUGGACAGAAGGGCAGAGCAA [G5C C6G U7C U10A G11A]	2.25
AGUUCGCGCAUGGAGCUCCAGCACAGUGAAAUGGACAGAAGGGCAGAGCAA [G5C C6G U7C U10A G11U]	3.26
AGUUCGCGCACGGAGCUCCAGCACAGUGAAAUGGACAGAAGGGCAGAGCAA [G5C C6G U7C U10A G11C]	3.41
AGUUCACCGAGGGAGCUCCAGCACAGUGAAAUGGACAGAAGGGCAGAGCAA [G5C C6A U7C G8C C9G U10A]	2.51
AGUUCGUCUCGGGAGCUCCAGCACAGUGAAAUGGACAGAAGGGCAGAGCAA [G5C C6G G8C C9U U10C]	3.14
AGUUCACACAGGGAGCUCCAGCACAGUGAAAGAGACAGAAGGGCAGAGCAA [G5C C6A U7C G8A U10A U32G G33A]	0.00787
AGUUCACACAGGGAGCUCCAGCACAGUGAAAGCGACAGAAGGGCAGAGCAA [G5C C6A U7C G8A U10A U32G G33C]	0.0862
AGUUCACACAGGGAGCUCCAGCACAGUGAAAGUGACAGAAGGGCAGAGCAA [G5C C6A U7C G8A U10A U32G G33U]	0.009
AGUUCAGCUCGGGAGCUCCAGCACAGUGAAAUGGACAGAAGGGCAGAGCAA [G5C C6A U7G G8C C9U U10C]	1.36
AGUUCGCUACGGGAGCUCCAGCACAGUGAAAUGGACAGAAGGGCAGAGCAA [G5C C6G U7C G8U C9A U10C]	2.74
AGUUCGCGCCGGGCGCUCCAGCACAGUGAAAUGGACAGAAGGGCAGAGCAA [G5C C6G U7C U10C A14C]	1.99
AGUUCGCGACGGGAGCUCCAGCACAGUGAAAUGGACAGAAGGGCAGAGCAA [G5C C6G U7C C9A U10C]	4
AGUUCGCGAGGGGAGCUCCAGCACAGUGAAAUGGACAGAAGGGCAGAGCAA [G5C C6G U7C C9A U10G]	1.77
AGUUCGCGAAGGGAGCUCCAGCACAGUGAAAUGGACAGAAGGGCAGAGCAA [G5C C6G U7C C9A U10A]	1.93
AGUUCACCAAGGGAGCUCCAGCACAGUGAAAUGGACAGAAGGGCAGAGCAA [G5C C6A U7C G8C C9A U10A]	0.741
AGUUCGCCCCGGGAGCUCCAGCACAGUGAAAUGGACAGAAGGGCAGAGCAA [G5C C6G U7C G8C U10C]	2.87
